From patent US12691168B2, “Vaccine for preventing and treating Merkel cell carcinoma” (priority 2020, dated 2026)

B1: rVP1: recombinant VP1 from inclusion bodies, disassembled with DTT/EGTA and reassembled under GSSG-GSH condition (protein)
chain: MAPKRKASSTCKTPKRQCIPKPGCCPNVASVPKLLVKGGVEVLSVVTGEDSITQIELYLNPRMGVNSPDLPTTSNWYTYTYDLQPKGSSPDQPIKENLPAYSVARVSLPMLNEDITCDTLQMWEAISVKTEVVGISSLINVHYWDMKRVHDYGAGIPVSGVNYHMFAIGGEPLDLQGLVLDYQTEYPKTTNGGPITIETVLGRKMTPKNQGLDPQAKAKLDKDGNYPIEVWCPDPSKNENSRYYGSIQTGSQTPTVLQFSNTLTTVLLDENGVGPLCKGDGLFISCADIVGFLFKTSGKMALHGLPRYFNVTLRKRWVKNPYPVVNLINSLFSNLMPKVSGQPMEGKDNQVEEVRIYEGSEQLPGDPDIVRFLDKFGQEKTVYPKPSVAPAAVTFQSNQQDKGKAPLKGPQKASQKESQTQELHHHHHH
B2: sVP1: soluble VP1 expressed under low-temperature induction (protein)
chain: MAPKRKASSTCKTPKRQCIPKPGCCPNVASVPKLLVKGGVEVLSVVTGEDSITQIELYLNPRMGVNSPDLPTTSNWYTYTYDLQPKGSSPDQPIKENLPAYSVARVSLPMLNEDITCDTLQMWEAISVKTEVVGISSLINVHYWDMKRVHDYGAGIPVSGVNYHMFAIGGEPLDLQGLVLDYQTEYPKTTNGGPITIETVLGRKMTPKNQGLDPQAKAKLDKDGNYPIEVWCPDPSKNENSRYYGSIQTGSQTPTVLQFSNTLTTVLLDENGVGPLCKGDGLFISCADIVGFLFKTSGKMALHGLPRYFNVTLRKRWVKNPYPVVNLINSLFSNLMPKVSGQPMEGKDNQVEEVRIYEGSEQLPGDPDIVRFLDKFGQEKTVYPKPSVAPAAVTFQSNQQDKGKAPLKGPQKASQKESQTQELHHHHHH

Columns and labels:
CMS5 cells = test: Killing effect of puromycin on CMS5 cells (trypan blue staining, microscope); assay type: cell-based; settings: puromycin 5 μg/mL, 24 h of culture
Experimental: In order to determine the killing dose of puromycin to CMS5, CMS5 cells were cultured in RPMI1640 (10% FBS, 1% […]) complete media with different concentrations of puromycin. 24 h later, cells were stained with trypan blue and observed under a microscope for mortality to determine the drug concentration for 100% lethality of CMS5 cells as the drug pressure for CMS5-VP1 cell line screening. […] After 24 h of culture, the CMS5 cells digested with trypsin were stained with trypan blue and the lethality of the cells was calculated microscopically to determine the final puromycin drug concentration. […]

[1] = system: anti-VP1 antibody in serum; test: VP1-specific antibody titer in serum of immunized mice by ELISA; assay type: in vivo, BALB/c mice; settings: Example 14; antigen adsorbed to Al(OH)3, i.m. days 0 and 14, blood day 28; plate coated with sVP1
Experimental: Enzyme-linked immunosorbent assay: on day 21, blood samples were collected from the mice, and the serum was determined for specific antibody titer by ELISA. When the antibody concentration in the mouse serum needs to be semi-quantitatively determined, a standard curve is added on the basis of the conventional ELISA, and the concentration of the antibody in the mouse serum is determined according to the concentration of the standard curve.
Blood was taken from the fundus of BALB/c mice who have completed the immunization program on day 28 after the initial immunization and left to stand at 4° C. overnight. The blood was centrifuged at 6000 rpm for 10 min to obtain serum. The level of anti-VP1 antibody in serum was determined by ELISA. The specific procedures were as follows: […]
The optical absorbance values were read at OD450/OD620 nm, and a value of 2.1 times the OD value of the negative control group was taken as a cutoff value. […]
In order to obtain a large amount of VP1, VP1 expressed under high-temperature induction in a fermentation tank mainly formed inclusion bodies. […] The antigen-specific antibody titer was determined by enzyme-linked immunosorbent assay (ELISA), and the specific procedures were as follows: […]
Reading: optical absorbance values were read at OD450/OD620. […]

[2] = system: DTH (delayed type hypersensitivity); test: Delayed type hypersensitivity (DTH), foot pad / paw swelling after antigen injection; assay type: in vivo, mice; settings: Example 13; two immunizations; 24 h after injection of rVP1; therapeutic vaccine groups compared with Vac group
Experimental: Delayed Type Hypersensitivity (DTH): the mice were immunized with the vaccine, and 7 days after the final immunization, 10 μL of antigen protein (10 μg) was injected into the hindfoot pad on the immunized side (right side) of the mice, and 10 μL of phosphate buffer was injected into the hindfoot pad on the side opposite to the immunized side (left side). The thickness of both hindfoot pads of the mice was measured 24 h and 48 h after DTH with a vernier caliper, and the measurement was performed three times at the same site to take the average. DTH value (mm)=right foot pad thickness−left foot pad thickness.
On day 7 after the immunization program, mice were injected with 10 μL of PBS or 10 μg of rVP1 (10 μL) at the left and right hind limb paws.
The paw swelling thickness was calculated for each experimental group according to the formula, and the differences between all vaccine groups were analyzed with GraphPad Prism statistical software.

[3] = Particle size by nano particle sizer; assay type: physicochemical
Experimental: 5) The VP1 was detected for pentamer formation by Nu-PAGE. The MCV-VP1 particle size was measured using a nano particle sizer.
3) Reassembled (also known as self-assembled) recombinant VP1 was named (rVP1), and rVP1 was filtered through a […] needle filter for sterilization, detected for the pentamer structure by Nu-PAGE, and measured for the particle size by a nano particle sizer.

Molecule	dead CMS5 cells, trypan blue staining (CMS5 cells) [%]	state of the cells observed under a microscope (CMS5 cells)	antigen-specific antibody titer relative to sVP1 [1]	DTH reaction (paw swelling thickness) [2]	particle size [3]
COc1ccc(C[C@H](N)C(=O)N[C@H]2[C@@H](O)[C@H](n3cnc4c(N(C)C)ncnc43)O[C@@H]2CO)cc1 [puromycin]	100	died in large numbers			
B1			twice those of sVP1	not significant	115.3 nm
B2					much higher than that of rVP1
